US8759300

Molecular target: platelet-derived growth factor-BB (PDGF-BB) (human) (UniProt P01127)
Assay: method not restated (same value as FN634-648 in paragraph 247)

platelet-derived growth factor-BB (PDGF-BB) (human), sequence (P01127 82-190 limits assumed): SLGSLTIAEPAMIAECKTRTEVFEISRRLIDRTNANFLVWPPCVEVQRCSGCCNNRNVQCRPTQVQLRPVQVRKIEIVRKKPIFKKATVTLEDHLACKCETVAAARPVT

For QPSHISKYILRWRPK [peptide 1A (FN634-648) …], the Kd was 450 nM.

Molecular target: platelet-derived growth factor-BB (PDGF-BB) (human) (UniProt P01127)
Assay: equilibrium binding

In the case of QPSHISKYILRWRPKNSVGRWKEAT [peptide 1 (FN634-658) …], the Kd is reported as 250 nM.

Molecular target: transforming growth factor-β1 (TGF-β1) (human) (UniProt P01137)
Sequence (P01137 279-390 limits assumed): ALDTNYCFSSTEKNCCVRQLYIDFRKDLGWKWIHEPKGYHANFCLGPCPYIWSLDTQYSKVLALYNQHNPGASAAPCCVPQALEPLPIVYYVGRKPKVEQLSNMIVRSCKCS
Assay: equilibrium binding

In order of rising Kd:
1. QPSVGQQMIFEEHGFRRTTPPTTAT [peptide 4 (FN2043-2067) …]  100 nM
2. QPSHISKYILRWRPKNSVGRWKEAT [peptide 1 (FN634-658) …]  130 nM
3. NGQTPIQRTIKPDVRSYTITGLQPGT [peptide 3 …]  140 nM
4. QLISIQQYGHQEVTRFDFTTTSTST [peptide 2 (FN680-704) …]  270 nM
5. ILRWRPKNSVGRWK [peptide 1B …]  400 nM
6. QPSHISKYILRWRPK [peptide 1A (FN634-648) …]  440 nM

Molecular target: platelet-derived growth factor-BB (PDGF-BB) (human) (UniProt P01127)
Assay: peptide binding to PDGF-BB

In order of rising Kd:
1. QLISIQQYGHQEVTRFDFTTTSTST [peptide 2 (FN680-704) …]  110 nM
2. QPSHISKYILRWRPKNSVGRWKEAT [peptide 1 (FN634-658) …]  250 nM
3. WNAPQPSHISKYILRWRPK [FN630-648 …]  340 nM
4. QPSHISKYILRWRPK [peptide 1A (FN634-648) …]  450 nM
